# Reference: patent US20240209061A1, “FUSION PROTEINS AND USES THEREOF” (Pfizer Inc., priority 2020, published 2024)
# Key:
# recombinant soluble CD28 = target: T1, recombinant soluble CD28 (Homo sapiens, UniProt P10747); experiment: ELISA binding to recombinant soluble CD28; details: standard ELISA, FIG. 2A
# T1 construct: Recombinant soluble CD28 and CTLA-4 proteins (from Creative BioMart, Product #CD28-3910H, CTLA-4-2232H) were immobilized; purchased Creative BioMart CD28-3910H
# Protocol: Binding affinity of purified CD80-Fc fusion proteins (WT and variant) to recombinant soluble CD28 and CTLA-4 proteins was determined by standard ELISA. Recombinant soluble CD28 and CTLA-4 proteins (from Creative BioMart, Product #CD28-3910H, CTLA-4-2232H) were immobilized on 96 well microtiter plate (Thermo Scientific, Product #436110) in bicarbonate buffer at 4° C. overnight. After washing with 1×PBS containing 0.05% Tween 20 (wash buffer) plates were incubated with blocking buffer, 5% BSA in PBS, for 1 hour at room temperature. A serial dilution of CD80-Fc fusion proteins and human IgG1 isotype control antibody was prepared in blocking buffer, added into the plate and incubated at room temperature for 1 hour. Following washing 3× with wash buffer, 1:4000 dilution of HRP conjugated secondary anti-human IgG1 antibody (R&D Systems, MAB110-100) was added into the plate and incubated at room temperature for 1 hour. Plates were washed 3× with wash buffer and a 100 μl of LumiGlo (SeraCare, Product #5430-0040) reagent added into each well, incubated for 5 minutes at room temperature before reading luminescence signal in EnSight™ plate reader (PerkinElmer).
# [1] = test system: peripheral blood mononuclear cells (PBMC); experiment: RESTORE cytokine release assay in absence of TCR stimulation; assay type: cell-based, human; design: IFNγ: unit not given beside the values
# Protocol: The ability of variant CD80-Fc fusion proteins to promote cytokine release in the absence of TCR stimulation was assessed in the RESTORE (RESetting T cells to Original Reactivity) assay (Römer et al, Blood, 2011). Freshly isolated peripheral blood mononuclear cells (PBMC) from whole blood of several healthy donors were cultured for 48 hours at […] within RPMI1640 media supplemented with 10% autologous plasma, 10 mM HEPES, 1× GlutaMAX, 1× PenStrep, beta2-mercaptoethanol, NEAA and sodium pyruvate. Following the 48-hour incubation, PBMC were pelleted and resuspended at a final concentration of 10^6/ml with indicated soluble drug. Treatment was allowed for 48 hours then supernatant was harvested and assessed in IL-2 and IFNγ ELISA according to manufacturer's protocol (BioLegend).
# Positive controls included CD28 superagonist anti-CD28 clone TGN1412 as IgG1 and IgG4 isotypes and anti-CD3. […] Values shown are the average of 3 technical replicates. D=Donor.
# [2] = test system: EMT6 murine breast cancer cells; experiment: EMT6 murine breast cancer model; assay type: in vivo, mouse; details: for Day 17 tumor volume: Days 0 and 3; for % tumor growth inhibition: Day 17
# Protocol: EMT6 murine breast cancer cells (3×10^5) were orthotopically implanted in the mammary fat pad of female Balb/c mice. When tumors reached ˜90 mm^3 (day 5 after implantation), mice were randomized. PBS vehicle control or variant CD80-Fc fusion proteins were dosed intravenously at 0.01, 0.1, 1.0 and 3.0 mg/kg on Days 0 and 3. Tumor volume was determined by caliper measurements obtained in 2 dimensions and calculated as width^2×length/2. Error bars are depicted as ±SEM.
# Tumor-reactive T cells in the spleen and tumor-draining lymph nodes (TDLNs) were measured by IFNγ ELIspot in mice treated with CD80-K89D-D90K-T28V-T57V-Fc.
# Cytotoxic CD8^+ T cells are responsible for killing cancer cells and the measurement of CD8^+ T cells that have infiltrated tumors commonly correlates with efficacy for immune-oncology therapies. For all in vivo studies, tumors were collected ˜1 week after the first dose and dissociated by mincing, followed by incubation in an enzymatic digestion cocktail and homogenization. The resulting cell suspension was filtered and washed, and single cells were stained with antibodies to CD45, CD8, and a viability dye to detect tumor-infiltrating lymphocytes (TILs) by flow cytometry. Data were acquired on a BD LSRFortessa flow cytometer or a Cytek Aurora spectral flow cytometer. Table 31 and FIG. 18 show the amount of tumor-infiltrating CD8+ T cells expressed as a percentage of total immune cells (CD45+). Each value is the average of n=4 mice per group. Treatment with all variant CD80-Fc fusion proteins led to increase in CD8+ TILs in various tumor models.
substance,measurement,setting,value
CD80-D90Q-Fc: variant CD80 ECD (D90Q) fused to human IgG1 Fc,binding affinity to CD28 compared to WT CD80-Fc,recombinant soluble CD28,increased binding affinity to CD28
same,IFNγ,"[1]; Table 20, D222, 1 μg/ml",3.3
same,IFNγ,"[1]; Table 20, D222, 10 μg/ml",4.0
same,IL-2,"[1]; Table 20, D222, 10 μg/ml",9.0
same,IFNγ,"[1]; Table 20, D281, 1 μg/ml",3.3
same,IL-2,"[1]; Table 20, D281, 1 μg/ml",2.3
same,IFNγ,"[1]; Table 20, D281, 10 μg/ml",3.3
same,IL-2,"[1]; Table 20, D281, 10 μg/ml",2.3
same,IFNγ,"[1]; Table 20, D462, 1 μg/ml",8.3
same,IL-2,"[1]; Table 20, D462, 1 μg/ml",1.7
same,IFNγ,"[1]; Table 20, D462, 10 μg/ml",10.3
same,IL-2,"[1]; Table 20, D462, 10 μg/ml",1.7
same,IFNγ,"[1]; Table 20, D547, 1 μg/ml",3.3
same,IL-2,"[1]; Table 20, D547, 1 μg/ml",9.0
same,IFNγ,"[1]; Table 20, D547, 10 μg/ml",7.7
same,IL-2,"[1]; Table 20, D547, 10 μg/ml",3.3
"CD80-K89Q-D90Q-E23C-A26C-Fc: disulfide stabilized variant CD80-Fc fusion protein (K89Q, D90Q, E23C, A26C)",IFNγ,"[1]; Table 20, D222, 1 μg/ml",7.3
same,IFNγ,"[1]; Table 20, D222, 10 μg/ml",4.3
same,IL-2,"[1]; Table 20, D222, 10 μg/ml",6.7
same,IFNγ,"[1]; Table 20, D281, 1 μg/ml",3.0
same,IL-2,"[1]; Table 20, D281, 1 μg/ml",2.7
same,IFNγ,"[1]; Table 20, D281, 10 μg/ml",3.7
same,IL-2,"[1]; Table 20, D281, 10 μg/ml",5.7
same,IFNγ,"[1]; Table 20, D462, 1 μg/ml",7.0
same,IL-2,"[1]; Table 20, D462, 1 μg/ml",2.0
same,IFNγ,"[1]; Table 20, D462, 10 μg/ml",7.3
same,IL-2,"[1]; Table 20, D462, 10 μg/ml",3.0
same,IFNγ,"[1]; Table 20, D547, 1 μg/ml",4.3
same,IL-2,"[1]; Table 20, D547, 1 μg/ml",13.3
same,IFNγ,"[1]; Table 20, D547, 10 μg/ml",3.0
same,IL-2,"[1]; Table 21, D132, 1.9 μg/ml",0.0
same,IL-2,"[1]; Table 21, D132, 5.6 μg/ml",0.0
same,IL-2,"[1]; Table 21, D132, 16.7 μg/ml",0.3
same,IL-2,"[1]; Table 21, D149, 1.9 μg/ml",0.0
same,IL-2,"[1]; Table 21, D149, 5.6 μg/ml",0.0
same,IL-2,"[1]; Table 21, D149, 16.7 μg/ml",0.0
same,IL-2,"[1]; Table 21, D149, 50 μg/ml",0.0
same,IL-2,"[1]; Table 21, D379, 1.9 μg/ml",29.0
same,IL-2,"[1]; Table 21, D379, 5.6 μg/ml",2.3
same,IL-2,"[1]; Table 21, D379, 16.7 μg/ml",0.0
same,IL-2,"[1]; Table 21, D379, 50 μg/ml",0.0
same,IL-2,"[1]; Table 21, D399, 1.9 μg/ml",0.0
same,IL-2,"[1]; Table 21, D399, 5.6 μg/ml",2.0
same,IL-2,"[1]; Table 21, D399, 16.7 μg/ml",0.0
same,IL-2,"[1]; Table 21, D399, 50 μg/ml",0.0
same,IL-2,"[1]; Table 21, D417, 1.9 μg/ml",3.0
same,IL-2,"[1]; Table 21, D417, 5.6 μg/ml",0.0
same,IL-2,"[1]; Table 21, D417, 16.7 μg/ml",0.3
same,IL-2,"[1]; Table 21, D417, 50 μg/ml",0.0
same,IL-2,"[1]; Table 21, D518, 1.9 μg/ml",0.0
same,IL-2,"[1]; Table 21, D518, 5.6 μg/ml",2.0
same,IL-2,"[1]; Table 21, D518, 16.7 μg/ml",1.7
same,IL-2,"[1]; Table 21, D518, 50 μg/ml",2.7
same,IFNγ,"[1]; Table 22, D132, 1.9 μg/ml",0.0
same,IFNγ,"[1]; Table 22, D132, 5.6 μg/ml",78.0
same,IFNγ,"[1]; Table 22, D132, 16.7 μg/ml",0.0
same,IFNγ,"[1]; Table 22, D132, 50 μg/ml",0.0
same,IFNγ,"[1]; Table 22, D149, 1.9 μg/ml",0.0
same,IFNγ,"[1]; Table 22, D149, 5.6 μg/ml",0.0
same,IFNγ,"[1]; Table 22, D149, 16.7 μg/ml",0.0
same,IFNγ,"[1]; Table 22, D149, 50 μg/ml",41.3
same,IFNγ,"[1]; Table 22, D379, 1.9 μg/ml",0.0
same,IFNγ,"[1]; Table 22, D379, 5.6 μg/ml",0.0
same,IFNγ,"[1]; Table 22, D379, 16.7 μg/ml",0.0
same,IFNγ,"[1]; Table 22, D379, 50 μg/ml",0.0
same,IFNγ,"[1]; Table 22, D399, 1.9 μg/ml",0.0
same,IFNγ,"[1]; Table 22, D399, 5.6 μg/ml",0.0
same,IFNγ,"[1]; Table 22, D399, 16.7 μg/ml",0.0
same,IFNγ,"[1]; Table 22, D399, 50 μg/ml",4.3
same,IFNγ,"[1]; Table 22, D417, 1.9 μg/ml",0.0
same,IFNγ,"[1]; Table 22, D417, 5.6 μg/ml",0.0
same,IFNγ,"[1]; Table 22, D417, 16.7 μg/ml",0.0
same,IFNγ,"[1]; Table 22, D417, 50 μg/ml",0.0
same,IFNγ,"[1]; Table 22, D518, 1.9 μg/ml",0.0
same,IFNγ,"[1]; Table 22, D518, 5.6 μg/ml",0.0
same,IFNγ,"[1]; Table 22, D518, 16.7 μg/ml",20.7
same,IFNγ,"[1]; Table 22, D518, 50 μg/ml",0.0
same,Day 17 tumor volume,[2]; 0.01 mg/kg IV,1581.7 mm^3
same,% tumor growth inhibition,[2]; 0.01 mg/kg,−1.7%
same,Day 17 tumor volume,[2]; 0.1 mg/kg IV,912.2 mm^3
same,% tumor growth inhibition,[2]; 0.1 mg/kg,43.7%
same,Day 17 tumor volume,[2]; 1 mg/kg IV,357.2 mm^3
same,% tumor growth inhibition,[2]; 1 mg/kg,81.4%
same,Day 17 tumor volume,[2]; 3 mg/kg IV,457.5 mm^3
same,% tumor growth inhibition,[2]; 3 mg/kg,74.6%
"CD80-K89Q-D90Q-Fc: variant CD80 ECD (K89Q, D90Q) fused to human IgG1 Fc",binding affinity to CD28 compared to WT CD80-Fc,recombinant soluble CD28,increased binding affinity to CD28
same,IFNγ,"[1]; Table 20, D222, 1 μg/ml",3.7
same,IL-2,"[1]; Table 20, D222, 1 μg/ml",4.3
same,IFNγ,"[1]; Table 20, D222, 10 μg/ml",4.0
same,IL-2,"[1]; Table 20, D222, 10 μg/ml",4.0
same,IFNγ,"[1]; Table 20, D281, 1 μg/ml",3.3
same,IL-2,"[1]; Table 20, D281, 1 μg/ml",2.3
same,IFNγ,"[1]; Table 20, D281, 10 μg/ml",6.7
same,IFNγ,"[1]; Table 20, D462, 1 μg/ml",7.0
same,IFNγ,"[1]; Table 20, D462, 10 μg/ml",15.0
same,IL-2,"[1]; Table 20, D462, 10 μg/ml",1.7
same,IFNγ,"[1]; Table 20, D547, 1 μg/ml",4.0
same,IL-2,"[1]; Table 20, D547, 1 μg/ml",6.3
same,IFNγ,"[1]; Table 20, D547, 10 μg/ml",8.0
same,IL-2,"[1]; Table 20, D547, 10 μg/ml",3.3
